Source: patent US6284879A, “Transport associated protein splice variants” (The General Hospital Corporation, priority 1998, dated 2001)

T1: TAP1/TAP2iso heterodimer (human)
T1 chain 1: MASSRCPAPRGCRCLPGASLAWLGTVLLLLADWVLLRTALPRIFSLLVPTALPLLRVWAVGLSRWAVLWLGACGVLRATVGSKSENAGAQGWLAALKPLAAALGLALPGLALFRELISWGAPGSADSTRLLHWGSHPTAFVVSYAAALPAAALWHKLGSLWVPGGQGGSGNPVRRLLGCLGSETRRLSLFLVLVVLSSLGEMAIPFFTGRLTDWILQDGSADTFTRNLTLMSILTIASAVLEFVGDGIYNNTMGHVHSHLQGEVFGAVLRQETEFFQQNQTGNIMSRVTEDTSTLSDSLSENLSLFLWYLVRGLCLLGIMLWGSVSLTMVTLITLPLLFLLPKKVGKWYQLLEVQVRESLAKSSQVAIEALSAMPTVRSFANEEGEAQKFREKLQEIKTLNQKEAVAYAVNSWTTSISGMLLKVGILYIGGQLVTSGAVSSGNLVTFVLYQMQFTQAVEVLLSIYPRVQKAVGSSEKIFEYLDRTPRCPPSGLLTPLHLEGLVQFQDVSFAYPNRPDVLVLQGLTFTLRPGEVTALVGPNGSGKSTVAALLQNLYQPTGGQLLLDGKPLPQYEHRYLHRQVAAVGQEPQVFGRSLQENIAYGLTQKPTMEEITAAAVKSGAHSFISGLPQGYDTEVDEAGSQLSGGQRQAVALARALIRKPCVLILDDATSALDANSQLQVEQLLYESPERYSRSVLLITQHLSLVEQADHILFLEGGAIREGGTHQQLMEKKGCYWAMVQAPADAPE
T1 chain 2: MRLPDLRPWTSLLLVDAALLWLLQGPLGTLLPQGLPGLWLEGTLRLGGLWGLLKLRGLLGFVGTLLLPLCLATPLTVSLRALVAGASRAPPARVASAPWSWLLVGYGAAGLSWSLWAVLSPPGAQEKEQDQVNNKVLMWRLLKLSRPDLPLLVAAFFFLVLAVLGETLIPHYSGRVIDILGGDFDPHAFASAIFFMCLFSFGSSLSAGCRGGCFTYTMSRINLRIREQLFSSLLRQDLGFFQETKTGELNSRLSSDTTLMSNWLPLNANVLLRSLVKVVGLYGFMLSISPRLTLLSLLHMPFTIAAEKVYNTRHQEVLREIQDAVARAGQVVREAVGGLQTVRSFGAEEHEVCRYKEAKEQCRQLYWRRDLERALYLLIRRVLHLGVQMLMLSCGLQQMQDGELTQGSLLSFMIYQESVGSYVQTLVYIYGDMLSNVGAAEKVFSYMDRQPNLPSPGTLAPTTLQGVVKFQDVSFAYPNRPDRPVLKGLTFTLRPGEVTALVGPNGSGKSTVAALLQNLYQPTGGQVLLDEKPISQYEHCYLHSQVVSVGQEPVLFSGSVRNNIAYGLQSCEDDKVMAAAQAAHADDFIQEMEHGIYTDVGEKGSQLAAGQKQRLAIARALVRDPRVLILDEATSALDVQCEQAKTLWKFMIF

T2: TAP1/TAP2 heterodimer (human)
T2 chain 1: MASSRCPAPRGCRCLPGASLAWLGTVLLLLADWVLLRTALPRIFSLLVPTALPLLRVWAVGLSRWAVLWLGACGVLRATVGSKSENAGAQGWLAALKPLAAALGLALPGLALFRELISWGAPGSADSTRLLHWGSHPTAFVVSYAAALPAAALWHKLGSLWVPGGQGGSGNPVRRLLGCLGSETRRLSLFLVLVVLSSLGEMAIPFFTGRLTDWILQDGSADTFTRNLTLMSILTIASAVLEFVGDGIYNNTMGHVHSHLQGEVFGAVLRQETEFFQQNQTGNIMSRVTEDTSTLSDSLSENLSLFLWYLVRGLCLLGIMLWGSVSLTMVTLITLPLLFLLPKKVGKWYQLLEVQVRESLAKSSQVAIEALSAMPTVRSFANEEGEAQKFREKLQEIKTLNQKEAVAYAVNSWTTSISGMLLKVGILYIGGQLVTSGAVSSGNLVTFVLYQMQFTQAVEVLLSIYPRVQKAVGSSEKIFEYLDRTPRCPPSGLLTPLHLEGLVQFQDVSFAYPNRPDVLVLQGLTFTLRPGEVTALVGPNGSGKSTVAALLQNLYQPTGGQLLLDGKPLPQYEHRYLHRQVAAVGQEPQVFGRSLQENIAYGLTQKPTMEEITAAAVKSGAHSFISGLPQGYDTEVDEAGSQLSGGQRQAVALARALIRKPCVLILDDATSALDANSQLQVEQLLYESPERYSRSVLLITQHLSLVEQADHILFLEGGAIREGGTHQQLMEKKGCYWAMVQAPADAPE
T2 chain 2: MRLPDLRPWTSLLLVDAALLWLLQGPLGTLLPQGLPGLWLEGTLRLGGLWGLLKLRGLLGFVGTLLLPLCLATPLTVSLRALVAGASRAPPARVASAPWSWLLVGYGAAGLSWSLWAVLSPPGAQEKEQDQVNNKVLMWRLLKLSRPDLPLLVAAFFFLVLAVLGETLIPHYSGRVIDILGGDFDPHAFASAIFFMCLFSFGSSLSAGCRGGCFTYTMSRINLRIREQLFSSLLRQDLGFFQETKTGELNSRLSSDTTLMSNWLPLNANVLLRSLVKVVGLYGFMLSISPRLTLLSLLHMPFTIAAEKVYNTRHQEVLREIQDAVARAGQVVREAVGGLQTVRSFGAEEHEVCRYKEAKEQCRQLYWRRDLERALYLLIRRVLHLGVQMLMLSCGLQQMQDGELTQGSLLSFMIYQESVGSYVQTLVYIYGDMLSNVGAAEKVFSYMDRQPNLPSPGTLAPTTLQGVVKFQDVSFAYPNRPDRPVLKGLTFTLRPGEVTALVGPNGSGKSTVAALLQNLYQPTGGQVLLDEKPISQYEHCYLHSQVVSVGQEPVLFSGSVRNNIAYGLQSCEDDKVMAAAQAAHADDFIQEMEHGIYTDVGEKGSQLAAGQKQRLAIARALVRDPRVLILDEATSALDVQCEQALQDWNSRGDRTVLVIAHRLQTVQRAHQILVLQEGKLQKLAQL


Columns and labels:
[1] = molecular target: T1, TAP1/TAP2iso heterodimer; experiment: cell-based or functional assay
[2] = molecular target: T2, TAP1/TAP2 heterodimer; experiment: cell-based or functional assay
[3] = tested on: HLA class I molecules in T2 cells; experiment: HLA class I maturation, endo H sensitivity, pulse-chase in transfected T2 cells; assay type: cell-based, human; conditions: expressed with TAP1 in T2 cells, relative to untransfected T2 cells
From the text: A preferred method of measuring the rate at which MHC class I antigen complexes exit the ER is through the quantification of MHC class I proteins of the Golgi apparatus sensitive to endoglycosidase H (endo H). Glycosylation of MHC class I proteins in the Golgi apparatus results in an increase in their molecular mass and an increase in resistance of MHC class I-linked glycans to endo H. By [^35 S]methionine pulse-labeling TAP- or TAPiso-expressing cell cultures and chasing with unlabeled methionine at various times, the rate of MHC class I maturation in the ER can be gauged by observing differences in endo H sensitivity, e.g., compared with a TAP-deficient cell line such as T2.
High density cells (1×10^8 cells/ml) were labeled for 15 minutes in the presence of 500 μCi [^35 S]methionine (Amersham), and then chased at the indicated times in the presence of 10 mM unlabeled methionine.
Cells were lysed in an ice-cold lysis buffer, and lysates were incubated overnight at 4° C. with protein A Sepharose beads (Pharmacia) and normal rabbit serum (1:200 dilution). The beads were removed by centrifugation and the resulting supernatant was incubated for 12 hours at 4° C. with protein A beads and monoclonal antibody W6/32 (American Type Culture Collection (ATCC) accession no. HB 95), which recognizes HLA class I molecules. […]

[4] = tested on: HLA class I (A2) on T2 cells; experiment: restoration of surface expression of HLA class I (A2) on transfected T2 cells, flow cytometry; assay type: cell-based, human; conditions: T2 cells transfected with the named cDNAs
Procedure: Plasmid DNAs were prepared using MAXI-PREP kits (Qiagen). TAP1- and TAP2-deficient T2 cells (donated by P. Cresswell, Howard Hughes Medical Institute, Yale University) (1-2×10^7 cells/ml) were transfected by electroporation with 10 μg of TAP1 and TAP2 or TAP2iso linear plasmid DNA in a 0.4-cm cuvette at 260 V and 960 μF. Subcloning and selection of transfectants were performed by culturing in the presence of hygromycin (250 μg/ml) or histidinol ([…]) for the PREP 4 and PREP8 vectors, respectively.
Immune complexes were detected with fluorescein isothiocyanate-conjugated goat anti-mouse IgG antibodies (Coulter, Hialeah, Fla.) and an Epics Elite flow cytometer (Coulter).
T2 cells were transfected with TAP1 cDNA in combination with TAP2 or TAPiso cDNAs as described above.

Molecule	IC50 of inhibition of transport of 125I-labeled Peptide … [1] [nM]	IC50 of inhibition of transport of 125I-labeled Peptide … [2] [nM]	HLA class I maturation as reflected in decreasing endo H sensitivity [3]	surface expression of HLA/MHC class I ([4]; in words)	Mean fluorescence of HLA class 1 (A2) Mean ± SD ([4]; four separate experiments, at least three stable clones)
RRYQNSTEL [unlabeled Peptide RRYQNSTEL]	~150	~150			
RGFFYTPKA [Peptide RGFFYTPKA]	110	300			
TAP2iso: TAP2 splice variant lacking exon 11 and containing exon 12; 653 amino acids (protein) MRLPDLRPWTSLLLVDAALLWLLQGPLGTLLPQGLPGLWLEGTLRLGGLWGLLKLRGLLGFVGTLLLPLCLATPLTVSLRALVAGASRAPPARVASAPWSWLLVGYGAAGLSWSLWAVLSPPGAQEKEQDQVNNKVLMWRLLKLSRPDLPLLVAAFFFLVLAVLGETLIPHYSGRVIDILGGDFDPHAFASAIFFMCLFSFGSSLSAGCRGGCFTYTMSRINLRIREQLFSSLLRQDLGFFQETKTGELNSRLSSDTTLMSNWLPLNANVLLRSLVKVVGLYGFMLSISPRLTLLSLLHMPFTIAAEKVYNTRHQEVLREIQDAVARAGQVVREAVGGLQTVRSFGAEEHEVCRYKEAKEQCRQLYWRRDLERALYLLIRRVLHLGVQMLMLSCGLQQMQDGELTQGSLLSFMIYQESVGSYVQTLVYIYGDMLSNVGAAEKVFSYMDRQPNLPSPGTLAPTTLQGVVKFQDVSFAYPNRPDRPVLKGLTFTLRPGEVTALVGPNGSGKSTVAALLQNLYQPTGGQVLLDEKPISQYEHCYLHSQVVSVGQEPVLFSGSVRNNIAYGLQSCEDDKVMAAAQAAHADDFIQEMEHGIYTDVGEKGSQLAAGQKQRLAIARALVRDPRVLILDEATSALDVQCEQAKTLWKFMIF			increasing HLA class I maturation	no effect	
TAP2: previously known TAP2 subunit (clone 0121, TAP2 F allele) (protein) MRLPDLRPWTSLLLVDAALLWLLQGPLGTLLPQGLPGLWLEGTLRLGGLWGLLKLRGLLGFVGTLLLPLCLATPLTVSLRALVAGASRAPPARVASAPWSWLLVGYGAAGLSWSLWAVLSPPGAQEKEQDQVNNKVLMWRLLKLSRPDLPLLVAAFFFLVLAVLGETLIPHYSGRVIDILGGDFDPHAFASAIFFMCLFSFGSSLSAGCRGGCFTYTMSRINLRIREQLFSSLLRQDLGFFQETKTGELNSRLSSDTTLMSNWLPLNANVLLRSLVKVVGLYGFMLSISPRLTLLSLLHMPFTIAAEKVYNTRHQEVLREIQDAVARAGQVVREAVGGLQTVRSFGAEEHEVCRYKEAKEQCRQLYWRRDLERALYLLIRRVLHLGVQMLMLSCGLQQMQDGELTQGSLLSFMIYQESVGSYVQTLVYIYGDMLSNVGAAEKVFSYMDRQPNLPSPGTLAPTTLQGVVKFQDVSFAYPNRPDRPVLKGLTFTLRPGEVTALVGPNGSGKSTVAALLQNLYQPTGGQVLLDEKPISQYEHCYLHSQVVSVGQEPVLFSGSVRNNIAYGLQSCEDDKVMAAAQAAHADDFIQEMEHGIYTDVGEKGSQLAAGQKQRLAIARALVRDPRVLILDEATSALDVQCEQALQDWNSRGDRTVLVIAHRLQTVQRAHQILVLQEGKLQKLAQL			increasing HLA class I maturation		6.11 ± 1.09
